{"source": "patent US20160168210A1", "about": "“DERIVATIVES OF COLLAGEN-BINDING HAIRPIN PEPTIDES” (NATIONAL RESEARCH COUNCIL OF CANADA, priority 2012, published 2016)", "key": {"[1]": {"test": "In vivo biodistribution by fluorescence imaging in nude mice", "set-up": "species or system mouse", "details": "for fluorescence biodistribution: ~0.25 mg/kg", "method": "(§1) Immune-compromised nude mice (20-30 g) and normal Sprague-Dawley rats (250-310 g; Charles River Laboratories, St-Constant, QC, Canada) were acclimated for at least 3 days prior to the start of the study. Animals were housed in microisolator cages and were kept on a 12-hr light/dark cycle with constant temperature and humidity. Food and water were provided ad libitum. Stock solutions of various agents and peptides of this invention were diluted in saline (0.9% sodium chloride) prior to use. Saline formulations of FL4247 were prepared in such a way that similar dose levels were achieved based on the body weight of the experimental animals used for the study (i.e. in mg/kg).\n(§2) Of the different methods available, imaging with fluorescently-labeled test compounds is particularly useful for assessing the in vivo biodistribution in real time with live animals. Therefore, the biodistribution of FL4247 was followed over time in two nude mice each for two routes of administration: 1) intravenous (I.V.); and 2) intraperitoneal (I.P.). Another imaging experiment was carried out using a Sprague-Darley rat (Charles River Laboratories, St-Constant, QC, Canada) through a tail-vein (I.V.) administration of an FL4247 solution.\nThe I.V. injection route depicted similar results in both studies even though the imaging sequence parameters were different (study 1=1 image/2 minutes over 30 minutes; study 2=1 image/5 minutes over 60 minutes).\nSimilar results were obtained in two studies involving the I.P. route of injection. Different imaging parameters were again used (study 1=1 image/2 minutes over 60 minutes; study 2=1 image/5 minutes over 90 minutes). The I.P. injection of FL4247 led to the accumulation of the compound at the level of the head within 5 minutes. […] The distribution of FL4247 over the entire body is complete within 30 minutes accompanied by a slow accumulation of fluorescence in the bladder region."}, "[2]": {"test": "In vivo biodistribution by fluorescence imaging in a normal Sprague-Dawley rat", "method": "as §1, §2\nThe biodistribution was also assessed using one rat in which FL4247 was injected intravenously (I.V.) through the tail vein. To illustrate the capacity for image contrast, only 10% (one tenth or 1/10) of FL4247 was used with the normal rat (FIG. 9C) as compared to the dosage of FL4247 used for imaging vascular injury in venous thrombosis (see FIG. 10). […] Then the fluorescence became more intense in both kidneys for the next 25 minutes and finally the fluorescence appeared in the bladder for the remainder of the experiment time. Although the head was not imaged during this experiment, ex vivo imaging was carried out at the end of the live-animal protocol with the dissected brain, heart, liver and both kidneys. A small amount of fluorescence was detected in the liver and a much stronger signal (about 10 times) was present in both kidneys."}, "[3]": {"tested_on": "fibrotic tissues of the lung", "test": "Fluorescence imaging in bleomycin-induced mouse model of pulmonary fibrosis", "type": "in vivo", "description": "Tissue localization of the representative compound FL4247 containing a collagen-binding hairpin peptide was further examined using a bleomycin-induced mouse model of pulmonary fibrosis. […] This is accompanied by fluorescence localization into generally inflamed tissues in the oral cavities of these mice, which are induced through either mechanical or contact damages. It can therefore be concluded that FL4247 has an affinity for inflamed/fibrosing tissues in vivo, very likely due to specific binding of the collagen-responsive hairpin moiety to newly-secreted collagen enriched in these tissue environments.\nSpecifically, pulmonary instillation of bleomysin was used to initiate pulmonary fibrosis in a mouse model using immune-compromised nude mice. The objective was to determine if the fluorescent FL4247 compound would localize in fibrotic tissues of the lung induced by bleomycin. […] The imaging data thus obtained confirm that: 1) the fluorescence detected in vivo in the thorax region was indeed coming from the lung and from the heart; and 2) since no fluorescence was detected in the lung and heart of the control mouse, the signal detected in the fibrotic mouse injected with FL4247 is very likely a result of different lung tissues induced by fibrosis. […]"}, "[4]": {"tested_on": "abdominal vena cava injured by FeCl3", "excerpt": "The application of ferric chloride on venous and arterial vessels was therefore the method used to produce the inflamed vasculature in the animal model. The carotid artery (arterial model) and the abdominal vena cava (venous model) were the chosen vessels for the imaging experiments with injured blood vessels undergong thrombosis.\nThe FeCl3 rat venous model of thrombosis was generated as described (Wang 2005) with some modifications. Briefly, rats were anesthetized with a 2.5% isoflurane/oxygen mixture and placed on a heat source (35-37° C.). The vena cava was then exposed via a midline incision and the region between the renal and iliolumbar veins was isolated. One minute after drug administration, a piece of filter paper (Gel Blot Paper, GB003, Whatman, Piscataway, N.J., USA; 7 mm diameter) saturated with 10% FeCl3 (EMD Chemicals Inc., Gibbstown, N.J., USA) was placed on the exposed surface of the vena cava and incubated for 3.5 minutes. During the application of FeCl3, the abdominal region was covered with aluminum foil. At the end of the incubation period, the filter paper was removed and the exposed viscera covered with a saline-soaked gauze.\nIn these imaging experiments, there were also a 30-minute waiting time after introduction of FeCl3 to the exposed vena cava to ensure the development of substantial vascular injury and the deposition of a thrombus."}, "rat-tail collagen type I": {"molecular_target": "rat-tail collagen type I (Rattus norvegicus, UniProt P02454+P02466)", "sequence (P02466 86-1125)": "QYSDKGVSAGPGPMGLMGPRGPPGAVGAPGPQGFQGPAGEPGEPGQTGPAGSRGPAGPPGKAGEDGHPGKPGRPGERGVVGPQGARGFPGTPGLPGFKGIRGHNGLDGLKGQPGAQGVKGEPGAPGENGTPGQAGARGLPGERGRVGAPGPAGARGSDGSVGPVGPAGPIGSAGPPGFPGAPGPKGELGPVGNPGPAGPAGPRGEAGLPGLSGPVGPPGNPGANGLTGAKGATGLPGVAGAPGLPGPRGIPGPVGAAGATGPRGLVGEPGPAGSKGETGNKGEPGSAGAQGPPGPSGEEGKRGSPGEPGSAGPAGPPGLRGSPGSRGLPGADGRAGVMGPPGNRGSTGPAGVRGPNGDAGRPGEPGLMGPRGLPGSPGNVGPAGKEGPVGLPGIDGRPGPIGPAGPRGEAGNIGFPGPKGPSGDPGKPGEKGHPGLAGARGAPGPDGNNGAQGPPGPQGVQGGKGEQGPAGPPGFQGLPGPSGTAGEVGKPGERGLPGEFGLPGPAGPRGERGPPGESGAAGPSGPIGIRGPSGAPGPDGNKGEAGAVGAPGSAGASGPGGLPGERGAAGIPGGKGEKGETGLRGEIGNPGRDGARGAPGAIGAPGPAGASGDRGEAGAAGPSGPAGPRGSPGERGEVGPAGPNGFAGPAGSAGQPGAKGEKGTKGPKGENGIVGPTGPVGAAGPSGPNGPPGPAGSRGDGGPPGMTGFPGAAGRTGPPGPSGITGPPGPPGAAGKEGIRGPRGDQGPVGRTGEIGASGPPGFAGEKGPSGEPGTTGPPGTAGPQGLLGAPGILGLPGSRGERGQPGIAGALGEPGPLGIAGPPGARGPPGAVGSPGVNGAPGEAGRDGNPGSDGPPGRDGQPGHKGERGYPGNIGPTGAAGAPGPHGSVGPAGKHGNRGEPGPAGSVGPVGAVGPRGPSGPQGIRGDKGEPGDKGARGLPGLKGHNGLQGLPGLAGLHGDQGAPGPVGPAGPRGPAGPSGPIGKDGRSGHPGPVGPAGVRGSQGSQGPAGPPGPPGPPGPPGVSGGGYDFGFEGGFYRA", "sequence (P02454 152-1207)": "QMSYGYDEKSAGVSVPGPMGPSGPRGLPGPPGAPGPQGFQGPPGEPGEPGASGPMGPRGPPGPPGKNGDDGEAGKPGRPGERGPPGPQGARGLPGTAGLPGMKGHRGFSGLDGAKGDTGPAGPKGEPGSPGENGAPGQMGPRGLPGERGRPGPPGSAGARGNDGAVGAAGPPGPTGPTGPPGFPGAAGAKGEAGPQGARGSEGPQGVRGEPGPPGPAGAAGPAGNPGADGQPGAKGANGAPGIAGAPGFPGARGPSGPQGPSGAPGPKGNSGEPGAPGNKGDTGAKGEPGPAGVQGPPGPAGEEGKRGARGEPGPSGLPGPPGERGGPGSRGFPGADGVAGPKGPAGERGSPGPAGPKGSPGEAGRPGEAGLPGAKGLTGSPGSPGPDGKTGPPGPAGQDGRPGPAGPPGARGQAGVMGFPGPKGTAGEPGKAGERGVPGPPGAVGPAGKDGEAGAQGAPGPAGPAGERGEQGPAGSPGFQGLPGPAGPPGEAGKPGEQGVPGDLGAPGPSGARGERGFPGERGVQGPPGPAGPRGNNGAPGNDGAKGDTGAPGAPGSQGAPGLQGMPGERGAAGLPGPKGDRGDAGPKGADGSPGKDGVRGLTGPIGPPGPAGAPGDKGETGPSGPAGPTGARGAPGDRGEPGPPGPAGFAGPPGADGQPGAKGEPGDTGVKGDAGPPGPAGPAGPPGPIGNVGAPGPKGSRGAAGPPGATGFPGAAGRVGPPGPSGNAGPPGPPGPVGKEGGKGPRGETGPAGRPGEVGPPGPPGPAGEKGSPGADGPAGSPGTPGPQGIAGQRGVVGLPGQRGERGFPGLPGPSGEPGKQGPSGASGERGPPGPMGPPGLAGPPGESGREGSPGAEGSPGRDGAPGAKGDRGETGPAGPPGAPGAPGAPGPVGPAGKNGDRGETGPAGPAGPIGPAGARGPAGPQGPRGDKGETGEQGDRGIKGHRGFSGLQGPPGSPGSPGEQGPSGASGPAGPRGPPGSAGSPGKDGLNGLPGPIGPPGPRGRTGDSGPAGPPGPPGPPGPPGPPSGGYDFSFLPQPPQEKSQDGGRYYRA", "test": "Retention of fluorescent peptide by collagen hydrogels, fluorescence imaging", "type": "binding", "set-up": "used together with rat-tail collagen (type I); from tissue; host or cells: rat tail", "details": "pre-formed or pre-mixed collagen hydrogel disks", "description": "Peptide P4247 conjugated to a fluorescent probe, i.e. FL4247 (Table 5), was therefore used together with rat-tail collagen (type I) to assess the binding capacity of CBLH peptides to collagen and to illustrate the potential applications of collagen hydrogels formulated with compounds of this invention. The fluorescent probe, HiLyte Fluor750 (AnaSpec, California) was selected with a maximum absorption at an optical wavelength of 750 nm and with a maximum fluorescence emission at 800 nm. Therefore, the intensity of fluorescence emissions would also be optimal for in vivo imaging of tissue locations with a differential enrichment of the injected fluorescent compound (see Examples 8-10). […] For this first experiment, FL4247 in a hydrogel solution were loaded onto the pre-formed collagen hydrogels and molecular diffusion off FL4247 was followed by fluorescence imaging (FIG. 8A, left image). […] Such FL4247-collagen hydrogel preparations (FIG. 8A, right) were then submerged in a large volume of buffer solutions (e.g. the PBS) and the degree of FL4247 retention by the hydrogels were followed by fluorescence imaging (FIG. 8B). […] However, the observed fluorescence intensity was still restricted close to the center of the hydrogel disks 30 minutes after the FL4247 solution was applied (FIG. 8A, left). […]"}}, "note": "“Also recorded” adds a separate entry of the source. Where no end group is shown, it is not given here."}
{"substance": "IRFTDGEWTWDDATKTWTWTEGGC-Fluor750 (not fully specified (C-terminus); printed as IRFTDGEWTWDDATKTWTWTEGGC-Fluor750; also: HiLyte Fluor750 conjugate) [FL4247, peptide P4247 conjugated to fluorescent probe HiLyte Fluor750]", "values": [{"measurement": "time to accumulation at the level of the head", "setting": "[1]; I.P.", "value": "≤ 5", "unit": "min"}, {"measurement": "time to complete distribution over the entire body", "setting": "[1]; I.P.", "value": "≤ 30", "unit": "min"}, {"measurement": "fluorescence biodistribution", "setting": "[1]; I.P.", "value": "far inferior over time compared to the I.V. injection; also recorded: no specific local accumulation of FL4247 was noted"}, {"measurement": "fluorescence biodistribution", "setting": "[1]; I.V.", "value": "accumulated rapidly in the head region followed by a slow decrease of fluorescent intensity over time; also recorded: accumulated in the bladder; also recorded: no other organs appeared to accumulate or retain FL4247"}, {"measurement": "fluorescence biodistribution (live and ex vivo imaging)", "setting": "[2]; I.V. tail vein, 0.025 mg/kg", "value": "differential accumulation in the head region, in the kidneys and in the bladder; also recorded: Nothing was detected in the brain and heart organs"}, {"measurement": "ex vivo signal in both kidneys relative to liver", "setting": "[2]; I.V., end of live-animal protocol", "value": "about 10 times"}, {"measurement": "decrease of liver fluorescence", "setting": "[2]; I.V., within 5 minutes", "value": 10, "unit": "times"}, {"measurement": "mice with I.V. injection showing marked fluorescence in the lung", "setting": "[3]; I.V.", "value": "two out of three mice"}, {"measurement": "fluorescence retention in fibrotic lung", "setting": "[3]; tail vein injection, ~0.5 mg/kg", "value": "high degree of FL4247 fluorescence was retained in the area of the lung"}, {"measurement": "fluorescence at the injured abdominal vena cava", "setting": "[4]; I.V. 30 minutes after FeCl3 application, ~0.2 mg/kg", "value": "strong fluorescence signal"}, {"measurement": "signal in dissected thrombus weaker than along injured vasculature", "setting": "[4]; ex vivo imaging, I.V. 30 minutes after FeCl3", "value": "about 3 times"}, {"measurement": "clearance", "setting": "[4]; rat venous thrombosis model, I.V.", "value": "rapid clearance of FL4247 via the kidneys to the bladder"}, {"measurement": "diffusion in / retention by collagen hydrogels (fluorescence)", "setting": "rat-tail collagen type I", "value": "significantly retarded the diffusion of FL4247 in the gel matrix; also recorded: could resist outward diffusion into buffer solutions"}]}
